Assays:
NsLOX = target: T1, NsLOX (Nostoc sphaeroides, UniProt A0A5P8W1C8); assay: absorbance at […] nm, Lineweaver-Burk; assay type: biochemical; conditions: optimum assay conditions: 20 mM Tris-HCl pH 8.0, 15 °C, substrate 20-100 μM
T1 construct: gene GXM_03308; full length, 455 residues (52 kDa) plus 2 kDa His tag from pET-28a(+) NdeI/XhoI, tag kept; codon-optimised synthetic gene; E. coli BL21(DE3); Ni-NTA; about 54 kDa; C-terminal Ile455; no N-terminal PLAT domain
T1 sequence (A0A5P8W1C8 1-455): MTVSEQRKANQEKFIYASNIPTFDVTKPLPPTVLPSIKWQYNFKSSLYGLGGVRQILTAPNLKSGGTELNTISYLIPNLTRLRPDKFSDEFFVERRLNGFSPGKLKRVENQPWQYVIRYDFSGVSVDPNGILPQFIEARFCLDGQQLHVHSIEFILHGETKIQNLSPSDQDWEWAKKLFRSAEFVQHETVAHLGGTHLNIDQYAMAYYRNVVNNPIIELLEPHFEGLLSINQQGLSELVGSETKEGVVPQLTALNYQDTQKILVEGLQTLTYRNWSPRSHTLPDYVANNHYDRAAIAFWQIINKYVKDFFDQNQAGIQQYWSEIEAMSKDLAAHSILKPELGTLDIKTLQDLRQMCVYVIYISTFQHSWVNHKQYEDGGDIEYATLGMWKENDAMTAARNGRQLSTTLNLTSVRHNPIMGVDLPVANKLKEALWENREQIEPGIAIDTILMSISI

purified protein = substrate: CCCCC/C=C\C/C=C\C/C=C\C/C=C\CCCC(=O)O; assay: purified protein; assay type: biochemical, Nostoc sphaeroides; conditions: optimum assay conditions: 20 mM Tris-HCl pH 8.0, 15 °C, substrate 20-100 μM

Question: Which Km (NsLOX) does the source give for `CCCCC/C=C\C/C=C\CCCCCCCC(=O)O` [LA, Linoleic acid] here?
Answer: 19.5 ± 1.24 µM

Question: Which Km (NsLOX; Km above tested substrate range) does the source give for `CC/C=C\C/C=C\C/C=C\CCCCCCCC(=O)O` [ALA, α-Linolenic acid] here?
Answer: 151 ± 6.39 µM

B1: NsLOX (Nostoc sphaeroides CCNUC1) (protein)
chain: MTVSEQRKANQEKFIYASNIPTFDVTKPLPPTVLPSIKWQYNFKSSLYGLGGVRQILTAPNLKSGGTELNTISYLIPNLTRLRPDKFSDEFFVERRLNGFSPGKLKRVENQPWQYVIRYDFSGVSVDPNGILPQFIEARFCLDGQQLHVHSIEFILHGETKIQNLSPSDQDWEWAKKLFRSAEFVQHETVAHLGGTHLNIDQYAMAYYRNVVNNPIIELLEPHFEGLLSINQQGLSELVGSETKEGVVPQLTALNYQDTQKILVEGLQTLTYRNWSPRSHTLPDYVANNHYDRAAIAFWQIINKYVKDFFDQNQAGIQQYWSEIEAMSKDLAAHSILKPELGTLDIKTLQDLRQMCVYVIYISTFQHSWVNHKQYEDGGDIEYATLGMWKENDAMTAARNGRQLSTTLNLTSVRHNPIMGVDLPVANKLKEALWENREQIEPGIAIDTILMSISI
notes: full length, 455 residues (52 kDa) plus 2 kDa His tag from pET-28a(+) NdeI/XhoI, tag kept; codon-optimised synthetic gene; E. coli BL21(DE3); Ni-NTA; about 54 kDa; C-terminal Ile455; no N-terminal PLAT domain
Question: With B1 as the molecule, how does the Km (purified protein) read?
Answer: 571.22 ± 26.88 µM

Question: What about the Vmax (purified protein) of the same molecule?
Answer: 30.6 µM/min

Question: And the kcat (purified protein)?
Answer: 7300 ± 145 s⁻¹

Question: What about the kcat/Km (purified protein) of the same molecule?
Answer: 1.28e+07 M⁻¹ s⁻¹

Source: PMC10177866, “Computational Insights and In Silico Characterization of a Novel Mini-Lipoxygenase from Nostoc Sphaeroides and Its Application in the Quality Improvement of Steamed Bread” (International Journal of Molecular Sciences, 2023)
